{"source": "IntAct's records for PubMed 22582013", "parents": {"B1": {"name": "Extracellular serine/threonine protein kinase FAM20C (Homo sapiens), Q8IXL6 (parent)", "chain": "MKMMLVRRFRVLILMVFLVACALHIALDLLPRLERRGARPSGEPGCSCAQPAAEVAAPGWAQVRGRPGEPPAASSAAGDAGWPNKHTLRILQDFSSDPSSNLSSHSLEKLPPAAEPAERALRGRDPGALRPHDPAHRPLLRDPGPRRSESPPGPGGDASLLARLFEHPLYRVAVPPLTEEDVLFNVNSDTRLSPKAAENPDWPHAGAEGAEFLSPGEAAVDSYPNWLKFHIGINRYELYSRHNPAIEALLHDLSSQRITSVAMKSGGTQLKLIMTFQNYGQALFKPMKQTREQETPPDFFYFSDYERHNAEIAAFHLDRILDFRRVPPVAGRMVNMTKEIRDVTRDKKLWRTFFISPANNICFYGECSYYCSTEHALCGKPDQIEGSLAAFLPDLSLAKRKTWRNPWRRSYHKRKKAEWEVDPDYCEEVKQTPPYDSSHRILDVMDMTIFDFLMGNMDRHHYETFEKFGNETFIIHLDNGRGFGKYSHDELSILVPLQQCCRIRKSTYLRLQLLAKEEYKLSLLMAESLRGDQVAPVLYQPHLEALDRRLRVVLKAVRDCVERNGLHSVVDDDLDTEHRAASAR"}}}
{"variants_of": "B1", "conditions": "with ostp_human SPP1, P10451"}
{"variant": "R549W", "effect of a mutation on the interaction": "with no effect"}
{"variant": "K338R", "effect of a mutation on the interaction": "with no effect"}
{"variant": "G379R", "effect of a mutation on the interaction": "with no effect"}
{"variant": "G379E", "effect of a mutation on the interaction": "with no effect"}
{"variant": "I258N;G280R", "effect of a mutation on the interaction": "with no effect"}
{"variant": "P328S", "effect of a mutation on the interaction": "with no effect"}
{"variant": "D478A", "effect of a mutation on the interaction": "with no effect"}
{"variant": "D451N", "effect of a mutation on the interaction": "with no effect"}
